From patent publication US12637513B2, “Method of treating cancer by administering an inhibitor of erythropoietin receptor activity comprising either erythropoietin receptor or erythropoietin protein” (ImmunEdge, Inc., priority 2022, dated 2026)

Key:
293T/EPOR cells = molecular target: T1, 293T/EPOR cells (Homo sapiens, UniProt P19235); assay: Staining of 293T/EPOR cells with purified antibodies (flow cytometry); type: binding
T1 construct: expressed in transfected cells; host or cells: 293T cells expressing hEPOR
T1 sequence (P19235 25-508): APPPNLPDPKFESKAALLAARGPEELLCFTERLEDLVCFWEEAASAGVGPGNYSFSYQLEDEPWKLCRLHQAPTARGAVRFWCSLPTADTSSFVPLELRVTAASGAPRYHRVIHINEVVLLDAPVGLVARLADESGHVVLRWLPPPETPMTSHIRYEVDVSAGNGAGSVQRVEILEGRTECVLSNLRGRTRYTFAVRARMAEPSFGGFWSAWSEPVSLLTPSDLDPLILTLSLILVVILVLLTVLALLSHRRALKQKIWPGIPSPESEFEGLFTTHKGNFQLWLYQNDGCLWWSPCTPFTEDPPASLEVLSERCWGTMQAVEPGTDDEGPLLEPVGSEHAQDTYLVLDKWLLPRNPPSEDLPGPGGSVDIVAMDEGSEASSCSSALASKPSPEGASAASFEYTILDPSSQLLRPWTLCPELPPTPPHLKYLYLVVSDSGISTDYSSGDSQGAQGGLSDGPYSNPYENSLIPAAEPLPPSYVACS
Method: (§1) The purified antibodies were used to stain the human leukemia UT-7 cells, 293T/EPOR, 293T/CD131, and 293T/EPOR/CD131 cells to confirm antigen binding. The UT-7 cells were maintained in Roswell Park Memorial Institute (RPMI) with 10% Fetal Bovine Serum (FBS) and 5 ng/ml of recombinant human GM-CSF (Peprotech®, Cat #300-03). The 293T cells expressing hEPOR, hCD131, or both were maintained in Dulbecco's Modified Eagle Medium (DMEM) with 10% FBS. 1×10^6 cells/ml were incubated with purified hybridoma clones M2 and M41 at a 3-fold dilution series starting from 20 μg/ml for 30 minutes at 4° C. After washing, the cells were incubated with PE labeled secondary antibody and subjected to flowcytometric analysis. […] The binding profiles of the 293T/EPOR/CD131 cells are similar except the peak MFIs around 1500, half of that of the 293T/EPOR cells (FIG. 29B).

293T/CD131 cells = molecular target: T2, 293T/CD131 cells (Homo sapiens, UniProt P32927); assay: Staining of 293T/CD131 cells with purified antibodies; type: binding
T2 construct: expressed in transfected cells; host or cells: 293T cells, lentiviral transduction
T2 sequence (P32927 17-897): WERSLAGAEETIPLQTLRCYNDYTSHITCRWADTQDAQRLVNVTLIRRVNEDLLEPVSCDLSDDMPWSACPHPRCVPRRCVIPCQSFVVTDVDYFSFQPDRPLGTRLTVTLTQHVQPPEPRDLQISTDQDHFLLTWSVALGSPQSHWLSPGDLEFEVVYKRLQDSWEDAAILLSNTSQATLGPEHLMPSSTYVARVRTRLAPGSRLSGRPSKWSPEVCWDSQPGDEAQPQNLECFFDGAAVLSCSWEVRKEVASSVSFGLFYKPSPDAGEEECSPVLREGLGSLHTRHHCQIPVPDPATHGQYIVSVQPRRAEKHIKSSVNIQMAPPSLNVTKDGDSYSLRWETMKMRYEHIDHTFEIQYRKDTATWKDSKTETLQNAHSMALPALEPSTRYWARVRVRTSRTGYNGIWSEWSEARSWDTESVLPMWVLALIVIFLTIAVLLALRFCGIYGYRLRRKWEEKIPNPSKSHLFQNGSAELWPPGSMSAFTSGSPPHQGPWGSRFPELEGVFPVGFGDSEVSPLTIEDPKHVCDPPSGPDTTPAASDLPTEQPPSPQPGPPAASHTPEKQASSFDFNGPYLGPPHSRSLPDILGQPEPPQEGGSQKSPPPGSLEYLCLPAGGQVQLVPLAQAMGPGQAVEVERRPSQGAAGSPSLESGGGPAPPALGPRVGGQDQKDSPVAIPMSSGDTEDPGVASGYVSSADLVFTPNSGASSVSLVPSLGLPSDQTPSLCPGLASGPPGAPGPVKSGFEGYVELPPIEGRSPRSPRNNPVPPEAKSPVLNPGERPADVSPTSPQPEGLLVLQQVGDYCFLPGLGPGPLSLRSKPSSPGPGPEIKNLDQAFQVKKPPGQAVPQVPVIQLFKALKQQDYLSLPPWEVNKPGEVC
Method: as §1

mean or median fluorescence intensity (MFI) (293T/EPOR cells; 27 ng/ml purified antibody, 293T/EPOR cells): ~100%
binding to 293T/EPOR cells (293T/EPOR cells; 20 μg/ml purified antibody): robust binding activities
staining of 293T/CD131 cells (293T/CD131 cells): did not stain
B1: EPORab - M2: hybridoma antibody clone, VH/VK in Table 10 (antibody, V domains shown)
VH: QVQLVESGGGLVKPGGSLRLSCAASGFTFSDSYMSWIRQAPGKGLEWVSYISNSGSYMYYADSVKGRFTISRDNAKNSLYLQMNNLRAEDTAVYYCARDKLGIGDYWGQGTLVTVSS
VL: DIQMTQSPSSLSASVGDRVTITCRASQGIRNDLGWFQQKPGKAPKRLIYAASRLQSGVPSRFSGSGSGTEFTLTISSLQPEDFATYCCLQHHTYPPTFGQGTKVEIK
